Measurements: PMC2686266

Molecular target: the mutant kinases (GST-fused NIK1 kinase domains with single and double amino acid replacements in the A-loop, except T474D)

B1: His-tagged nuclear shuttle protein (NSP) of Cabbage leaf curl virus (CaLCuV), Q96706 1-256 (natural protein)
chain: MYPTKFRRGVSYSQRRFVSRNQSSKRGTFVRRTDGKRRKGPSSKAHDEPKMKLQRIHENQYGPEFVMTHNSALSTFINFPVLGKIEPNRSRSYIKLNRLSFKGTVKIERVHADVNMDGVISKIEGVFSLVIVVDRKPHLSSTGGLHTFDEIFGARIHSHGNLAITPGLKDRYYVLHVLKRVLSVEKDTLMVDLEGSTTISNRRYNCWASFNDLEHDLCNGVYANISKNAILVYYCWMSDAMSKASTFVSYDLDYLG
**Q.** With B1 as the binder, how does the further reduction of the residual autophosphorylation activity of the mutant kinases in vitro in the presence of GST-NSP read?
**A.** 50 to 70%
